Measured values from US6824991B2, “Human bad polypeptides, encoding nucleic acids and methods of use” (IDUN Pharmaceuticals Inc., priority 1996, dated 2004).

T1: Bak (Homo sapiens, UniProt Q16611)
T1 construct: expressed in transfected cells; host or cells: yeast strain EGY191
T1 sequence (Q16611 1-190 limits assumed): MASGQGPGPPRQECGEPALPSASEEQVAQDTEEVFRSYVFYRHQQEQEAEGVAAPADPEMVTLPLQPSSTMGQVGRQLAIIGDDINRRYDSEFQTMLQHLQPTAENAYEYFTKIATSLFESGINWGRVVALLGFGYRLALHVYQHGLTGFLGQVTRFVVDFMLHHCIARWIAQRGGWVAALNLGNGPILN

T2: Bad (Homo sapiens, UniProt Q92934)
T2 construct: expressed in transfected cells; host or cells: yeast strain EGY191
T2 sequence (Q92934 1-168): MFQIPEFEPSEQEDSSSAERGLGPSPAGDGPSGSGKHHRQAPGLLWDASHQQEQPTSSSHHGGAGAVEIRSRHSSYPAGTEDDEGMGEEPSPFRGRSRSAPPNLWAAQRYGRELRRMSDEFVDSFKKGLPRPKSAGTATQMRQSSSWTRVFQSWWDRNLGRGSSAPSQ

B1: human Bad: human Bcl-xL/Bcl-2 associated death promoting polypeptide, SEQ ID NO:2, encoded by cDNA clone BM1 (protein, listed as Homo sapiens)
chain: T2 sequence (Q92934 1-168)
B2: 6HBad: full length human Bad with a six residue Histidine tag, expressed from pET-15 6H Bad in E. coli (protein)
chain: T2 sequence (Q92934 1-168)
modifications: left off: small tags and cut ends

How the values were obtained:
[1] = target: T1, Bak; assay: yeast two-hybrid assay, human Bad bait with Bak prey; type: binding; conditions: yeast strain EGY191, LexA-Bad bait, B42 prey, FIG. 3
Description: (§1) To assess whether Bcl-2 family members bind to or otherwise interact with human Bad and to map their binding domains, a yeast two-hybrid system was employed using the above described clones. Briefly, the full length human Bad sequence was subcloned into the yeast 2-hybrid vector pEGE202, or “bait-vector” to express Bad as a fusion protein with the DNA-binding protein LexA (Ruden et al., Nature (1991) 350:426-430). Human Bcl-2, Bcl-X, Bax, Bak and Bad were similarly cloned into the yeast 2-hybrid vector pJG4-5, or “prey-vector” to expressed these Bcl-2 family members as fusion proteins with the transcriptional activator B42 (Gyuris et al., Cell (1993) 75:791-803). Briefly, the full length human Bad sequence was amplified by PCR and subcloned into the bait-vector. For the PCR reaction we used the following primers: 5′ATCAGTGAATTCACTATGTTCCAGATCCCA GAC3′ (SEQ ID NO: 4) and 5′ATCGATCTCGAGTCACTGGGAGGGGGCGGA GCT3′ (SEQ ID NO: 5). […]
(§2) To determine if human Bad binds to any of the above Bcl-2 family members, the Bad-bait plasmid was cotransformed with every prey plasmid and the reporter plasmid p18-34 into the yeast strain EGY191. […] The reaction was stopped with 0.4 M NaOH and the plate was read at an OD 420 nm. Protein-protein interaction was measured as beta-galactosidase activity using the following equation: OD 420:(OD 600×0.1 ml×ONPG reaction time).

[2] = target: T2, Bad; assay: yeast two-hybrid assay, human Bad bait with Bad prey; type: binding; conditions: yeast strain EGY191, LexA-Bad bait, B42 prey, FIG. 3
Description: as §1, §2

[3] = target: T3, Bcl-XL (Homo sapiens, UniProt Q07817); assay: yeast two-hybrid assay, human Bad bait with Bcl-XL prey; type: binding; conditions: yeast strain EGY191, LexA-Bad bait, B42 prey, FIG. 3
T3 construct: expressed in transfected cells; host or cells: yeast strain EGY191
Description: as §1, §2

[4] = target: T4, Bcl-2 (Homo sapiens, UniProt P10415); assay: yeast two-hybrid assay, human Bad bait with Bcl-2 prey; type: binding; conditions: yeast strain EGY191, LexA-Bad bait, B42 prey, FIG. 3
T4 construct: expressed in transfected cells; host or cells: yeast strain EGY191
Description: as §1, §2

[5] = target: T5, Bax (Homo sapiens, UniProt Q07812); assay: yeast two-hybrid assay, human Bad bait with Bax prey; type: binding; conditions: yeast strain EGY191, LexA-Bad bait, B42 prey, FIG. 3
T5 construct: expressed in transfected cells; host or cells: yeast strain EGY191
Description: as §1, §2

[6] = target: T6, GST-Bcl-XL (Homo sapiens, UniProt Q07817); assay: ELISA-type binding assay, plate-coated 6HBad with GST-Bcl-XL; conditions: FIG. 4
T6 construct: made in house; host or cells: E. coli XL1-Blue (pGEX constructs); E. coli BL21 pLysS (6HBad)
Description: To generate fusion proteins for these screening assays, Bad and Bcl-xL were cloned into pET-15b (Novagen) and pGEX 4T1 (Pharmacia) vectors, respectively. The pET15b-bad construct was made as follows. Full length bad cDNA was amplified by PCR using cDNA BM1 as template and primers containing NdeI (5′) and XhoI (3′) restriction sites (5′ primer: 5′-GGGAATTCCATATGTTCCAGATCCCAGAG-3′ (SEQ ID NO: 10)); 3′ primer: 5′-TACAGTCTCGAGTCACTGGGAGGGGGCGGAGCT-3′ (SEQ ID NO: 11)). The PCR product was then digested with NdeI/XhoI and ligated into the NdeI and XhoI sites of pET15b. The above primer sequences were chosen such that the bad ORF sequence would be in frame with 5′ vector sequence encoding a six residue Histidine tag. The final construct was termed pET-15 6H Bad. […]

[7] = target: GST-Bcl-2 (Homo sapiens, UniProt P10415); assay: ELISA-type binding assay, plate-coated 6HBad with GST-Bcl-2; conditions: anti-GST detection, FIG. 4
Chain of GST-Bcl-2 (P10415 whole entry): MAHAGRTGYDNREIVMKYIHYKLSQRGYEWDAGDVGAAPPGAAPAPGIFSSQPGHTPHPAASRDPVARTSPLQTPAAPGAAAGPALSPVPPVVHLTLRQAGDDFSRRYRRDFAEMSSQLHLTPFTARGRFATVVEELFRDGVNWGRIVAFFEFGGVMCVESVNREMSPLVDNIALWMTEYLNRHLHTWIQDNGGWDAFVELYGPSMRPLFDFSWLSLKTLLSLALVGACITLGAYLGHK

T6 sequence (Q07817 1-211 limits assumed): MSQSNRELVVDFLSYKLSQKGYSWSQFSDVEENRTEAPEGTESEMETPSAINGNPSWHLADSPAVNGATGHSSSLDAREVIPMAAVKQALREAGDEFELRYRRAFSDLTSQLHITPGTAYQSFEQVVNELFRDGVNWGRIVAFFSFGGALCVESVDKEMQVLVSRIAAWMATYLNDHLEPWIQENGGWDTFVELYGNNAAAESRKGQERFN
T4 sequence (P10415 1-218 limits assumed): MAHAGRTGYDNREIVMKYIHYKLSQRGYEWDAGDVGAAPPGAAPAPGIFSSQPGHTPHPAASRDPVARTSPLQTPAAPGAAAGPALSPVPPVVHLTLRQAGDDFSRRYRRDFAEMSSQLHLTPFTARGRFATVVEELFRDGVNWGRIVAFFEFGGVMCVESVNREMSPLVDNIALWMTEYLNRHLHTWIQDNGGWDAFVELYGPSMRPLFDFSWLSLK
T3 sequence (Q07817 1-212 limits assumed): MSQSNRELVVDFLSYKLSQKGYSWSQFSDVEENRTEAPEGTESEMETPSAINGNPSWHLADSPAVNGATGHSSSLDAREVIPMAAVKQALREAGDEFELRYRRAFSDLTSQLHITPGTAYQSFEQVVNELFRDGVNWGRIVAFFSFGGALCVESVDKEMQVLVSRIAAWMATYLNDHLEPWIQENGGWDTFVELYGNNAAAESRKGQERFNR
T5 sequence (Q07812 1-174 limits assumed): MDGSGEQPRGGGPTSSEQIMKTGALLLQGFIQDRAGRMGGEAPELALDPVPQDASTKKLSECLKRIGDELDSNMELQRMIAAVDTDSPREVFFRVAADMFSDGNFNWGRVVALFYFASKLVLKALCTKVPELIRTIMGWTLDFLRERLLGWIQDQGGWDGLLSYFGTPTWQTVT

Molecule | protein-protein interaction with Bak (beta-galactosidase activity) [1] | protein-protein interaction with itself (beta-galactosidase activity) [2] | protein-protein interaction with Bcl-XL (beta-galactosidase activity) [3] | protein-protein interaction with Bcl-2 (beta-galactosidase activity) [4] | protein-protein interaction with Bax (beta-galactosidase activity) [5] | relative binding affinity to GST-Bcl-xL in ELISA ([6]; compared with GST-Bcl-2 and GST-Bax) | interaction with GST-Bcl-XL in ELISA ([6]; plate-coated 6HBad, anti-GST detection) | interaction with GST-Bcl-2 in ELISA [7]
B1 | no interactions were observed | no interactions were observed | interacts | interacts | no interactions were observed | – | – | –
B2 | – | – | – | – | – | highest affinity | interacts | interacts
